# Measured values as given in the NTF2 design screens of Basanta et al. (2020).
# Experiment: protease stability score; higher = more stable; yeast display proteolysis, trypsin and chymotrypsin;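 also: relative to predicted unfolded state with 0 unfolded-like and 1 meaning tenfold more protease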
row,Sequence,protease stability score
1,TEIEKLLDEIVKHFLWAFLTGDWDKVAKLADPNTKSVWNGVDLVGMHLNEHVLEMLIRRYDVIHSIHLRSYRTQGDKLHVDSELNMIQGDKEETVRVRITLHVVNGRLKSIEVRIE,-0.002
2,DEDRRLMEELTRHRIDLKKTGNEELLRTLADPNTRALVNGKDMHGREQIATWLWQFREDLGVDHIDLEDFHVQGDKMEVHLDWKVNGQRIEVIVIIYIVDGRIKKEEMHFT,0.416
3,TESEKLSRIVIKLLIESTRTGDERILHELVDPNVKLNVNGRELHGWEEMVKIHKQWRFHDLEVDSVRLIGDKMEIDTTIHGTIDGQKDNIDVRIILEKVNGRWVLREVHIK,1.58
4,DELEEDSKKFFEILIKAYWTGDFTTLSRMMDPHVRNDINGRDIHGMEELSRVETEISRKYGADHFDFHIKDFKVQGEKLTVHGRIIIRVNGKTFEHDEIFYLIKIDGKWTWESVEVL,0.989
5,DERDREVHLASELLHRIVRTGNEEVFEDYLDPNVRVRVNGVESWGMDSFKHWLKEIRIHSHEVDHFDVIGDKLHFDTRVDGEFDGRRDIYKSEVHAEKINGRWIFKIVIFR,1.19
6,DEETNLSKLVMEISLELLETGDEEHIHRFVDPHARTILFIDGREEQVHGREQASKWIMWTVKFLGVDHIEVEDTKIVNGVAHLNIRMEVGDKRLTSHFTSEKVNGKWLIKDIRIRID,1.94
7,DEREKRLKDIALIVMHLLLTGDEERFHELFDPDTKMTLIFNGQIETSHGMEEVRELLRYWLEEIRIEHYHLTEIHLIGDKTHVHGELVGEVNGKRFKTHIHITIVVIDGKVHSVEFELR,1.77
8,DEEDEDAHYALKLLLKMVHTGNEEDMQRYLDPNVRVEQGDYHYHGREASEIIKNRFKNVKVKVDHYEIQGEYVNLKVTIDVNGKHKQSTIIVHKFDGRWLIEKIIII,2.48
9,DEEHEQLERLARDYMHSTETGDEESIRRFFDPHTRYDIDGKESHGWEMIKHWMEEWRIDSVTIHSIHRINGVAHIDVTVHGEIGDKQTTFRVIIDLVIVNGKVHEIRIIFE,-0.086
10,DEDEHIERHLFEELIELLRTGDFRRLFELIDPHARFVVDGRDHHGMEYAMRERLRRLEEAGVKHIRIRRKDVINGRLHIHSSVNVNGVEQEERIIIEKVNGRWTITEIVID,1.26
11,SEWEEELERLLREIIHSILTGDEKRLRELMDPNAKFHILVNGVEIDLMGMEHHSHWFREWLKHARINTVHIRHYDVVGEKARSDTELDMEIDGRRIRTRTELILVVIDGRVHSLEIRIK,2.02
12,SEEEKEDWEWMEIFYDALHTGDEKLIRDNADPNVKFRQGDYHSVGREEYIRKIDELRRRLGITKIRLEIDHVEVINGRSNVDTTIHVNGREIRSTLHVQVVNGRIKEIEIHLR,1.04
13,DDIDHFLLEIVLRFIEDNLTGNEDNLRKMADPDTRIFIHIGEKEFRIHGREAWTEWILTIVDHMRMRLNIRRLEWQGDKARITQEQDIHVGNKTHTTEVELHIVIIDGKMHTVHVELR,1.36
14,DEDDQWSEMLAKKYLDRVLTGDEKRMKSLLDPNVRLSVNGVDMHGREVFVHWLRTVLNRVDHQELRLRHLHSQGDKAHVDTEVIENWDGVKIVKETELEFIFVNGRFHSVFHRER,0.267
15,SEDETIALEFLKNWLRDLKTGNEEALSKLLDPNARMVFNGKEHHGREILLDIIKHFVERIDHFNSLHVHDIKIQGDKVHMDLRLIGHVDGREVEHRIHMVIIKYDGRWINQVEEIE,1.16
16,SENHKLSREALEHFLHLVHTGDFEKIYHMLDPNVKSEAENHHDHGMRDVVHLWRTMGIDHIRVHEVRIFENHLDVDMISIVGDKHFRLNIHIRKVNGRWQTELVRVN,1.8
17,SSDKRDAHFAMDLYYEIHLTGDEDRWRHMADPNVRLHVGEKDFHGRELWFKFMHDFGLDKIEIELKDIEVQGEKVHLDGIIRFDGREHKVEVDLRKINGRWIIDEERYK,1.13
18,SEFDRLSKEAVDILVHSLETGDWRSVSELFDPDYRLDVGDKRYHGREKVNEFMRHMGIKHVEIKRIHLQGDKAHIDSRMLVDGREFITHVIMEKVNGRWVITHISIE,1.01
19,HEDHERVRHIIERWWHILETGDEDEMEDMADPNVQIYIGDKRHHGREILAEHVRKFKGKKVNIKRLDIQGDKFRVDGDVHYDGRHHRVRIEIDVVDGRIKRLRIEIE,1.38
20,DHHEEIMVTIMELLVRWLETGDEKSLVELLDPDVRHDVNGVDLHGREHVSRWMREHLERYDHLEVEITHIEVQGDKVHLDGTLILIFNGRNVVMKVHIHTIIVNGRAHELRFRTE,0.698
21,DHEERNIEDFLRELLHSLITGDEHTYRRLMDPNMQLFVDGRTFVGWKEALKWYQEILRRIDVIENIEIEQFSVFDGRVFVRVHLHMRVGDKTHHSFVHILLVKINGKWRLEEHEVV,1.79
22,DEDEHEMRELIDKWLHNLKTGDEKRTEELMDPHAKIRTVINGVEYRFHGREMLHYLVQILGVDHMEIKHVEIRVQGNKVENHVDLTLIVGDKHVRTRMILVAEKIDGRWEVKSLFFNIE,1.96
23,DDEREEAKRAIEDLVRDLETGNWKHLHEFLDPNVRIRVGDKDIHGREEATHHLRRLHEKFKNLKVIIEHVDIVGNKIIEHGHIEIGDKSMEVEIIIIKINGRWYIKEIHIK,1.6
24,DHDDEESKHWLEFYLEIVQTGDEDSHKRLADPNTRLHIDGQVMHGREFMTMWFRHLVSKFKNARVEIRLRDTRKINGRVELDVELIFRVGDKEERREVQIFADKVDGRWHIKEFVVH,2.22
25,DEEEEELKQHLHEILHSIMTGDWRSLRHLIDPNVRLDIGDKTYHGREDFLTWVKHLIDKIPNVKFEIKHIRIVGEKVIMNIVVKINGVEHTRHLIADKIDGKWFISSTEVH,1.76

row,Sequence,protease stability score
1,TEEDEMWHKFMEHYVHNFLTGDPNKAKKLADPDTRFEIDGKDVVGMERIIDEFLKVPGLRSEIKRVTFIGDKIHIDGRMIINGVETKVDIDIHVVNGVIKSIHIRVR,0.74
2,SEFDEASREAHEWFVELSKTGDEHEVKKFFDPNMRIDWNGVELIGRDTASKFFHELRFEHVRMEDVKFIDGVLRLDSHSIVNVNGQRFETRDDIVIEKFNGQWILKSIRVE,1
3,TEEKEEIDHAFELIWKAIDTGDEKFMTEQADPHTLTILVVDGQEIRLHGMEEFVRTFRELGIKHVRLEDIRIQGNKVEIHIRTNFNGRESEMRVHMEKVDGRWVLRSHRVIFK,1.36
4,DEHKESLKRAFELWVETVKTGDEQRTEELIDPHVRVVIGDKEIHGMKETSRHILEMRVKSFRLRHYHFVNGRVNILGEIDGEFDGRRRDVDITIHIQKFNGRWLIDELHFG,2.27
5,SEEEKELRFVYDLLWHLLKTGDEEITRELADPRVRIDIDGKEWHGRDELARLFDRLHRELGYTVHRTRHHRHDFINGQWHEDGETKGVIGDKEFETHVKIIIIVINGRLKEVIFHYH,1.16
6,DELEHDAREYFRILEESIRTGDEDLFRKLADPNVRLMIDGKNWIGWESYHEELRQYDHRHVDMRIDHIEVVDGRVHIDGRIEVTITIDGVEHRLNHKLRVEIEKIDGRWHMKFILVE,1.67
7,DEHEEMVRIFIKLFIHNSHTGNEEELTRMADPHTKVDVNGKEYIGREEWRRFFMELGVDHVEVRRVHVQGEKAEVDLELNIDGRVIRFHIYTLKINGKWIIKSLEVR,1.78
8,DEDHKHSEEAIKRWIDTMVTGDERLFNHLADPHTKIEFNGVDNHGMEEAVRVMIFIFRLLGVDHIRIEFRERHVFNGKVVWHFHLERRIGDKTEHINTHILMEKVDGRWLIQSERYE,1.56
9,DEHEMEIRDFIDKFLQSLRTGDEEKVHKLIDPHVRTQIDGQEFHGREEFLRFLRTHLERLGVDHIDVDLQQIEIVGEKINIHGTLTIEIDGRYLRHTFHLRVEKVNGKWIIESIRMT,2.15
10,SEEQEVARDFFKILTHFHQTGNEEIVHELFDPNVRLHVGDKEVHGREEFIKVERELRTDDMHLRHVELQGEFIRIDVRAKGRVNGRDLEFHVHIVVRKVNGRWILTSLHIK,0.446
11,DETTELAREAIELLVKSLRTGDWDTSSRLLDPHTRYHYGEFNSHGREMFIISLEFLWKHLRIEDVHITHIRSIGDKVDVDTVLRVNVNGQVVDVEFFIHAHKVNGKWLYTEIRVR,1.16
12,DEDEEKLKEFRDVLLHAISTGDEETIKTLVDPHVRIEIDGKERHGRDKVTKLFRDLGVDHVRLTEVSIIGDKLHLDLRLRYGDKERTMIWIISKINGRWLIHTVETH,1.15
13,SEEDEMSKRFLDDLLHNLRTGDFDRLKNELDPHAKLVVDGQELHGMELASKRDLEMRVNHLEIRHVEIQGEWIHLKGEMDGEVNGKRNIHEVHVLLFKINGRWYVREVWIR,1.41
14,QEDEDFVRWALHVFMRYVLTGDEESLERLLDPDVRITVGNKHLHGMENATNELRHMSKQVDHIHDLRFHDVRSINGRIHETGIDDGIINGRRIHRESILVIEKVNGRWHFHSIRVL,0.836
15,DDSDEHTKRATDELRHNLRTGDEERILKLVDPNARIDINGVKVIGWHMVEELVRKFWEEMRVEELEIHDMKVYGDKAIVDGYVEQRQGNKFIYIKTEIIKVKIDGRWILTELRFR,0.57
16,DEDEKLSREAFRKLLEDRETGDEHMLTRNADPRARIEVNGVELHGREHAEKFWRHYHEKFKNIRINIEHHEIQGEKVIIRGILHVNGVNLTVEIHALKINGKWLNEEFSVK,0.129
17,DEEDKMVRVLVELWVENFITGDEEKLYELMDPDTRLEIDGVENHGMEKAIEFLERHREHYGVDHIHLIIHEVKHQGNKAHIDGILEFRQGDKQIELHWELHFEVVNGRMKEVHVNTR,2.29
18,DKHEEALEIAIRLLELVWKTGDFEDFVRLLDPHTRFHYGDKDFIGMELWLRLHEHLGITQIEIRSTHHHRIHAQGDKVILDIEIEGIIGDKETRHRIKLVVVKVDGRWKIKEVHIR,1.09
19,TDLKEYVERMLELLRKAIETGDETTLTKLVDPHVRLEVNGREFHGWKFWHMIVREIRMRDLELHHVEIQGDKMEVDGTLHLEINGKDDYRKVRLIAEKFDGRWVFTSVHFE,1.72
20,NEEEHELELAYRWYEESILTGDEDELTHLLDPHVRLQYGDKEFHGREIVLHFFHKHWREMGAKYIEVHSISLYGDKIVFDSTLHINGRTHRVHVTSRKVDGRWRIRSMRIN,1.63
21,SDHEHMILHYARHVLELWFTGDWEIFEKLADPRAKMTVNGQELHGRESVSKWMHDKKEEIRMRDLRIHHIDVQGDFVILHLRVDFEVNGQRIDTHIEIYILVVNGQLREIEIREK,0.853
22,DELQHELERFLEEESRMLKTGDEKRLLELADPDVRVHIDGVDMVGWEALETMWRILKERLGADHVEDVKIRHVDLQGDKADMDVEFDMIQGDKKHYLRSRLIVTKINGRWLLRYVIIK,1.75
23,DEEEETARRLTEELIRSQKTGDWEFLLRLMDPHAKSDINGVHVVGMEETVRILEKLLRDLGVTKVEALLHRVHFIDGRVHVDSEERYGDKWFRVHFTVQKINGKWVIRSIEVR,1.4
24,DEEREIIETFFRESLEVIKTGDWKTFDDLLDPRARLNIGDKDYHGRHEIVRQWHKQFKDLGVDHIENKDLRIFDGKIETHFDLEVGDKRIHLEFHATKIDGRWLFHEIRVQ,1.97
25,DEREHSVKLAFDKFLEDLHTGNEEMLDRFLDPHVRYHVGDKERHGRENFSRHVAKFLTEYGFKHLHLHMKDWEVQGDKATIEGHVNMHFNGRLIRHNTHLVIWKVNGRWLLESSEER,0.699
